{"source": "paper doi:10.1101/2022.05.27.493400", "biological_target": "SARS-CoV-2 spike protein, extraviral domain (aa 1-1213) (SARS-CoV-2) (UniProt P0DTC2)", "experiment": "SPR", "note": "Where “and” joins values, the source holds several entries; their conditions need not be identical. Identical values can stand only once."}
{"substance": "pineapple-derived jacalin-related lectin AcmJRL (natural protein)", "values": [{"measurement": "KD of a single replicate, from Langmuir isotherm", "result": "7.9 µM and 11.5 µM and 14 µM"}, {"measurement": "KD of a single replicate, from rate constants", "result": "3.1 µM and 4 µM and 2.7 µM"}, {"measurement": "Kd", "result": "3.27 µM and 11.1 µM"}, {"measurement": "koff", "result": 0.00342, "unit": "s⁻¹"}, {"measurement": "kon", "result": 1060, "unit": "M⁻¹ s⁻¹"}]}
